Measurements: patent publication US20070298445, “Cancer Therapeutic” (published 2007)

Biological target: ZNF306 (UniProt Q9BRR0 Q9BRR0:1-538)
Test: cell_activity; luciferase induction, duplicate tandem copies upstream of minimal tk promoter
Conditions: tags: expression plasmid or cDNA in colon cancer cells

ZNF306, sequence (Q9BRR0 whole entry, one chain of several): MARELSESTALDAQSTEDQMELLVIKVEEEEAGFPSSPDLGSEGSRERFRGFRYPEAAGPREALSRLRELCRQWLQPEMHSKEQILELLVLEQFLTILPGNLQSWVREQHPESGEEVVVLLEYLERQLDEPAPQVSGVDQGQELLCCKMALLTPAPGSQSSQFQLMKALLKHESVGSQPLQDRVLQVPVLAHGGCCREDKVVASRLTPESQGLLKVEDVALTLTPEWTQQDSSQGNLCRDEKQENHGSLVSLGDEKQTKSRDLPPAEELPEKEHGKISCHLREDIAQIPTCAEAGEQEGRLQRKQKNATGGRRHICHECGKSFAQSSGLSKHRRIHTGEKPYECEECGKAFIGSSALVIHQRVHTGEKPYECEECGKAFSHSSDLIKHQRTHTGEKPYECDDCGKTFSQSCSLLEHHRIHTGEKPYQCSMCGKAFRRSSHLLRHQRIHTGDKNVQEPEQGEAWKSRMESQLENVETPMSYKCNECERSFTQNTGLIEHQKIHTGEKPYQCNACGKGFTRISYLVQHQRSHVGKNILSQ

B1: integrin beta4 intron 1 wt probe (dsDNA)
DNA 1: TGAGGGG
DNA 2: CCCCTCA
- activity: 6 fold
